Measured values: patent publication US20240299546A1

Legend:
[1] = target: HLA-A1-TITIN pMHC (human); assay: SPR, biotinylated HLA-A1-TITIN on streptavidin chip, soluble TCR flowed
[2] = target: HLA-A1-MAGE-A3 pMHC (human); assay: SPR, biotinylated HLA-A1-MAGE-A3 on streptavidin chip, soluble TCR flowed

Kd [1]: 7.7 µM
Kd [2]: 1.24 µM
B1: A3A TCR (TCR, V domains shown)
V domain 1: KQEVTQIPAALSVPEGENLVLNCSFTDSAIYNLQWFRQDPGKGLTSLLLVRPYQREQTSGRLNASLDKSSGRSTLYIAASQPGDSATYLCAVRPGGAGSYQLTFGKGTKLSVIP
V domain 2: KAGVTQTPRYLIKTRGQQVTLSCSPISGHRSVSWYQQTPGQGLQFLFEYFSETQRNKGNFPGRFSGRQFSNSRSEMNVSTLELGDSALYLCASSPNMADEQYFGPGTRLTVTE
